Patent publication US20210155711A1
pKd: −log10 of the molar value.

Tests used:
[1] = target: human FcγRI (recombinant, polyhistidine-tagged) (human) (UniProt P12314); test: SPR (BIACORE 3000), His-tagged receptor captured on anti-His IgG, antibody injected; 1:1 steady state fit
[2] = target: recombinant human FcRn (transmembrane and cytoplasmic domains replaced with a poly-histidine tag) (human) (UniProt P55899); test: … bead competition: unlabelled test antibody against biotinylated human IgG1 CNT06234 for recombinant FcRn, pH 6.4
[3] = target: human FcγRIIa (recombinant, Example 1; allotype not stated) (human) (UniProt P12318); test: SPR (BIACORE 3000), His-tagged receptor captured on anti-His IgG, antibody injected; 1:1 steady state fit
[4] = target: human FcγRIIIa (recombinant, Example 1) (human) (UniProt P08637); test: as above
[5] = target: human FcγRIIa (recombinant, Example 1; allotype not stated) (human) (UniProt P12318); test: … bead competition: unlabelled test antibody against a biotinylated control antibody (human IgG1 CNT06234 by paragraph 15/paragraph 85; paragraph 86 says 'against IgG2') for recombinant FcgRIIa
[6] = target: human FcγRI (recombinant, polyhistidine-tagged) (human) (UniProt P12314); test: SPR (BIACORE 3000), His-tagged receptor captured on anti-His IgG, antibody injected; 1:1 kinetic fit
[7] = target: human FcγRIIIa (recombinant, Example 1) (human) (UniProt P08637); test: as above
[8] = target: human FcγRIIa (recombinant, Example 1; allotype not stated) (human) (UniProt P12318); test: … direct binding (avidity) assay: biotinylated test antibody and recombinant His-tagged FcgRIIa on donor and acceptor beads

human FcγRIIIa (recombinant, Example 1) (human), sequence (P08637 17-208 F176V limits assumed): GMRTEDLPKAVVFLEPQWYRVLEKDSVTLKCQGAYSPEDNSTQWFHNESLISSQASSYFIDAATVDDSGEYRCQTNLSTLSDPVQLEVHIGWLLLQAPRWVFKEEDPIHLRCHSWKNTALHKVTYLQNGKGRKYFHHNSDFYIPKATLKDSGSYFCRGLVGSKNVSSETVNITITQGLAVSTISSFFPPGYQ
human FcγRI (recombinant, polyhistidine-tagged) (human), sequence (P12314 16-288 limits assumed): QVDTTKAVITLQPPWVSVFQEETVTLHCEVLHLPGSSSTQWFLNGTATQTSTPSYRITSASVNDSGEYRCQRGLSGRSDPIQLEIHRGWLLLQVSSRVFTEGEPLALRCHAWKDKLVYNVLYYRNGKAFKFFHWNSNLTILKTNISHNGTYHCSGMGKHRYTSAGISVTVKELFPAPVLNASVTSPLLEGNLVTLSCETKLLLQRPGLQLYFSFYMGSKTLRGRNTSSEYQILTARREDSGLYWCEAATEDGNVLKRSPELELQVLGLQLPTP
human FcγRIIa (recombinant, Example 1; allotype not stated) (human), sequence (P12318 36-218 limits assumed): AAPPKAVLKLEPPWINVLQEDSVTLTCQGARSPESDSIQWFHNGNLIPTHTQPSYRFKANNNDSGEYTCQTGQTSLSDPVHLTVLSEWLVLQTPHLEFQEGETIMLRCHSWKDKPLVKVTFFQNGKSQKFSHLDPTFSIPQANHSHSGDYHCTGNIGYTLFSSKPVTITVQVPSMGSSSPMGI
recombinant human FcRn (transmembrane and cytoplasmic domains replaced with a poly-histidine tag) (human), sequence (P55899 other isoform, or with tags, fused parts or gaps, form in doubt): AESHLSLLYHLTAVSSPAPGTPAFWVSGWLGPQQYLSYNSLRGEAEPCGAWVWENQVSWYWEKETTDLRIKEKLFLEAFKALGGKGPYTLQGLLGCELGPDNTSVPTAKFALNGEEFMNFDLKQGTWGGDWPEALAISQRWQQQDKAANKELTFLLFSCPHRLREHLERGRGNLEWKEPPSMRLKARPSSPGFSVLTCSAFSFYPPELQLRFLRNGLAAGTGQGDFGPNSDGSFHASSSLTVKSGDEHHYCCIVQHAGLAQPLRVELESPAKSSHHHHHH

Substance	pKd [1]	IC50 (read off the curve) [2] [µg/mL]	pKd [3]	pKd [4]	IC50 (read off the curve) [5] [µg/mL]	pKd [6]	pKd [7]	EC50 (read off the curve) [8] [µg/mL]
IgG2c4a (human IgG2 H268A, V309L, A330S, P331S, anti-Her2/neu construct) (antibody)	3.80	60	5.66	4.07	20	–	–	–
IgG2c4b (human IgG2 V234A, G237A, H268Q, V309L, A330S, P331S, anti-Her2/neu construct) (antibody)	4.42	60	3.77	–	100	–	–	–
IgG2c4c (human IgG2 V234A, G237A, H268A, V309L, A330S, P331S, anti-Her2/neu construct) (antibody)	–	–	4.72	–	60	7.36	6.19	–
IgG2m4 (human IgG2 H268Q, V309L, A330S, P331S, anti-Her2/neu construct) (antibody)	3.68	80	5.57	4.02	30	–	–	0.2
IgG4 A/A (human IgG4 S228P, F234A, L235A, anti-Her2/neu construct) (antibody)	4.82	100	3.82	4.26	–	–	–	–
huIgG2 (wild type human IgG2 isotype antibody, anti-Her2/neu construct)	3.92	80	6.00	4.39	50	–	–	0.2

The next lines start with the values.

pKd [1]	IC50 (read off the curve) [2] [µg/mL]	pKd [3]	pKd [4]	IC50 (read off the curve) [5] [µg/mL]	pKd [6]	pKd [7]	EC50 (read off the curve) [8] [µg/mL]	Substance
5.43	100	–	–	–	–	–	–	IgG1 Ag (human IgG1 N297A, aglycosylated, anti-Her2/neu construct) (antibody)
–	100	–	–	–	–	–	–	IgG2c4e (human IgG2 P233S, V234A, G237A, P238S, H268A, V309L, A330S, P331S, anti-Her2/neu construct) (antibody)
–	70	5.77	–	6	7.89	–	0.1	huIgG1 (wild type human IgG1 isotype antibody, anti-Her2/neu construct)
